Assay results as given in doi:10.1101/2025.09.26.678488, “Dishevelled drives Wnt-stimulated disassembly of primary cilia through a unique PDZ-mediated binding mode with Daple and Girdin” (bioRxiv, 2025).
No end group written: not given here. *: point of attachment. Lip = lipoyl, O=C(CCCC[C@@H]1CCSS1)*

Legend:
Lip-PDZ_(DVL2) = target: T1, Lip-PDZ_(DVL2) (human, UniProt O14641 265-361); assay: ITC; 40 μM Lip-PDZ_(DVL2) in the cell, 1.00 mM Lip-PBM_(Daple) or 1.33 mM Lip-PBM_(FZD4) in the syringe; 25°C; 25 mM sodium phosphate pH 6.7, 150 mM NaCl; one set of binding sites; apparent KD; details: both partners purified
T1 construct: DVL2 (Dishevelled-2), human, PDZ domain, amino acids 265-361; also called His6x-Lip-PDZ; source: E. coli BL21-CodonPlus(DE3)-RIL, purified (Ni-NTA, SEC); not shown: Lipoyl (Lip), N-terminal, kept
T1 sequence (looked up): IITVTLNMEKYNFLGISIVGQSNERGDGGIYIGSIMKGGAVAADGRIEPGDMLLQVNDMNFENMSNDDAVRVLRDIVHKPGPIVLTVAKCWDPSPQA

[1] = target: T2, PDZ_(DVL2) V334E cleft mutant (NMR sample) (human, UniProt O14641 265-361, V334E); assay: NMR titration; 1H-15N fHSQC of 100 μM 15N-labelled PDZ_(DVL2) alone or with 150 μM (Daple, Girdin) or 300 μM (FZD4) Lip-tagged PBM peptide; 298 K; chemical shift perturbations and line broadening; details: both partners purified
T2 construct: DVL2 (Dishevelled-2), human, PDZ domain, amino acids 265-361, V334E; source: E. coli BL21-CodonPlus(DE3)-RIL, purified (Ni-NTA, SEC)
T2 sequence (looked up): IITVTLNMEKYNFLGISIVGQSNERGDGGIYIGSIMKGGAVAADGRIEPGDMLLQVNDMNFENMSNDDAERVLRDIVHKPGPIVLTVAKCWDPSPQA

- Kd (Lip-PDZ_(DVL2)): 9.1 µM
- binding result [1]: binds
B1: Lip-PBM_(Daple) (C-terminal eight residues of Daple tagged with Lipoyl) (peptide, UniProt Q9P219 2021-2028, looked up)
peptide: Lip-VWYEYGCV
notes: Daple, C-terminal eight residues; the last residue is printed as Val2028, so 2021 is worked out; printed residues: Trp2022, Glu2024, Tyr2025, Gly2026, Cys2027, Val2028; source: E. coli BL21-CodonPlus(DE3)-RIL, purified (Ni-NTA, SEC); not shown: Lipoyl (Lip), N-terminal, kept
